Laboratory results reported in patent US20170030911.
Substitutions are numbered along the chain they refer to. In names and notes the source's numbering stands.

T1: native bovine biglycan, P21809
T1 chain: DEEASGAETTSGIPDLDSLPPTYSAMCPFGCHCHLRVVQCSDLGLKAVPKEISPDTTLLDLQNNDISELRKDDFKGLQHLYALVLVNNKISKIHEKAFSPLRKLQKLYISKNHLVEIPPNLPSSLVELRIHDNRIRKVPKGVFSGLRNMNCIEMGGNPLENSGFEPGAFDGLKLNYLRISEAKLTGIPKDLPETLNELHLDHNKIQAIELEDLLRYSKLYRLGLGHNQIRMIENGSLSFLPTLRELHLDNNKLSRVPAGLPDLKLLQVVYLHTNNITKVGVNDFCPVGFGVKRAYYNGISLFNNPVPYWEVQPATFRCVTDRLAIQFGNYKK

T2: native bovine decorin, P21793
T2 chain: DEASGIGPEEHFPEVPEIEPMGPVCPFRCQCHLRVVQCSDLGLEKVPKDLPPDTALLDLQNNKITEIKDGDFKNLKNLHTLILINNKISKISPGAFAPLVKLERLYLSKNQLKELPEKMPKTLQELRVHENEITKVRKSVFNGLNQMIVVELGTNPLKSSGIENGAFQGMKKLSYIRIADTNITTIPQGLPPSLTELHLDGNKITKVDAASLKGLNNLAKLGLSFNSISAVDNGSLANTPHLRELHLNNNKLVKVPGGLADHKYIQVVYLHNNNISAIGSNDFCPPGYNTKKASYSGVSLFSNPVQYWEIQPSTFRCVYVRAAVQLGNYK

T3: recombinant human E-cadherin, P12830
T3 chain: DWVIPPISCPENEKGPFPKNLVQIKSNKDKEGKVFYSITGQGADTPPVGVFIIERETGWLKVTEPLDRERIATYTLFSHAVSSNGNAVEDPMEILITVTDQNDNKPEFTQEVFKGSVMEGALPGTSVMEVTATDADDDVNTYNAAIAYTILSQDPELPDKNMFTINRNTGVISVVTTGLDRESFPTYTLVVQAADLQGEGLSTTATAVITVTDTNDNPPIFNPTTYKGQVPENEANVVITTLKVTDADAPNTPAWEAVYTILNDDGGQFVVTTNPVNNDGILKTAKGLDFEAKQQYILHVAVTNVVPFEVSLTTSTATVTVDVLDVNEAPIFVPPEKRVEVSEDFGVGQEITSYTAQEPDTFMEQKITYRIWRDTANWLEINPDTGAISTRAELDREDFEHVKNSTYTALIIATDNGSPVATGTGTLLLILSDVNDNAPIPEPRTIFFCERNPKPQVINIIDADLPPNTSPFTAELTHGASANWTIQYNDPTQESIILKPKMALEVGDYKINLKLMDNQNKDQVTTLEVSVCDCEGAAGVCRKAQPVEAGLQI

T4: recombinant human biglycan, P21810
T4 chain: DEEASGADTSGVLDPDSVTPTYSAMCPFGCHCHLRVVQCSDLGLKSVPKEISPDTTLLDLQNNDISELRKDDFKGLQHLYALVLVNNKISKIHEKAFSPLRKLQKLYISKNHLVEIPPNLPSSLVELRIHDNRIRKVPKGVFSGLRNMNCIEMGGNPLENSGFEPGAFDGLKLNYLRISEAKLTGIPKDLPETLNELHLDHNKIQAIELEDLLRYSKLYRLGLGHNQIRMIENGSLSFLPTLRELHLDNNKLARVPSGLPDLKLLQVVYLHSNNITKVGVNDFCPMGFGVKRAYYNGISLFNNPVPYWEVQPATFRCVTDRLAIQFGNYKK

T5: recombinant human brevican, Q96GW7
T5 chain: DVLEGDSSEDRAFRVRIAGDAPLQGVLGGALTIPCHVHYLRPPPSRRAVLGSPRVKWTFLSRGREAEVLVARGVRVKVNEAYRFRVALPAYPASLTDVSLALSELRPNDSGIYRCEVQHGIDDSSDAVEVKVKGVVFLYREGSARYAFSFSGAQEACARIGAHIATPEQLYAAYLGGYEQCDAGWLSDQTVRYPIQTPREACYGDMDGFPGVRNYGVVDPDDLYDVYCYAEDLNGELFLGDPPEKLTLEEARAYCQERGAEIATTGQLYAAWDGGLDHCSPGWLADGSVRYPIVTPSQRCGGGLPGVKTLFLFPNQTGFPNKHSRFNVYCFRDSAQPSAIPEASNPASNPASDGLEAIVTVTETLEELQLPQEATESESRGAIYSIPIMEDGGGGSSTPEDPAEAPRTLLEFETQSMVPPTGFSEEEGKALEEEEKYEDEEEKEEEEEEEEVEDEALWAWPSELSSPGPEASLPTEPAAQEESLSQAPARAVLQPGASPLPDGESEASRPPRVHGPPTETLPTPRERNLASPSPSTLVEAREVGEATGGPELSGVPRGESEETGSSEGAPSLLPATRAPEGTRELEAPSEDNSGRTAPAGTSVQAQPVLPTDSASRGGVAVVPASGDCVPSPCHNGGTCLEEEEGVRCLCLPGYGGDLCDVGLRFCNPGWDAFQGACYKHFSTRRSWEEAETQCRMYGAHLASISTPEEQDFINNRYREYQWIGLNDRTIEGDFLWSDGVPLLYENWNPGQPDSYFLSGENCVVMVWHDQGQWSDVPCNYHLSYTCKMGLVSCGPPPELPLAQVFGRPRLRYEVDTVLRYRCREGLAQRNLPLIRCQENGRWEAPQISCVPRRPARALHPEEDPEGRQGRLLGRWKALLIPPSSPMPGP

T6: recombinant human decorin, P07585
T6 chain: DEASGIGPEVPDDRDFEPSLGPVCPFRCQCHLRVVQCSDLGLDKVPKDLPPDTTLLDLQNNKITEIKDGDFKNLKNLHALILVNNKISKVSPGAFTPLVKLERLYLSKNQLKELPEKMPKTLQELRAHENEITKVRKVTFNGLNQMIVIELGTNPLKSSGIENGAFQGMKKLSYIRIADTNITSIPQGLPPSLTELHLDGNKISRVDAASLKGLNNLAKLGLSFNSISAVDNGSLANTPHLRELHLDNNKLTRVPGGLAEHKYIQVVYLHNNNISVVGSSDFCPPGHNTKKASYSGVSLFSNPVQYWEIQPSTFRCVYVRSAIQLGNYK

B1: Borrelia burgdorferi HtrA (BB0104, BbHtrA), recombinant wild type mature protein (amino acids 38-474), His-tagged, made in E. coli (protein)
chain: EEKDNTVRALQDSFREVSKKILPSSVEVHATGVIKQSFPIPFFFFDMPEFDSERKSNWAGSGVIIGRDSQKKSLFYVVTNSHVVDKATELEVVSYDKKKHKAKLIGKDEKKDIALISFESDDATIKVADLGDSDKLEIGDWVMAVGSPFQFSFTVTAGIVSGLQRSANPNLQSRNLFIQTDAAINRGNSGGPLVNIKGEVIGINAWIASNSGGNIGLGFAIPVNNIKSTVDFFLKGKKIESAWLGISFYPLKTRDSEVLKSLGVESNDVSAAIIASLYPGSPAVKSGLRAGDIIMKVNGVSMSVFQDVTSYISDFYAGEKVNVEILRGNVKKNIEIVLAVRPKDKELSSSKMLPGFVVYPLVEDIKAQLNLRNWIKGVVVDYIDKNLASNIKMKSGDVILSVNSKSVSNLREFYDALEVGKNTYKILRGNDSFKITF
B2: Borrelia burgdorferi HtrA (BB0104, BbHtrA^S226A), recombinant inactive mutant, mature protein (amino (protein)
chain: B1 chain with S189A

How the values were obtained:
[1] = biological target: native bovine aggrecan, fully glycosylated, P13608
[2] = biological target: T1, native bovine biglycan, P21809
[3] = biological target: T2, native bovine decorin, P21793
[4] = biological target: native human plasma fibronectin, P02751
[5] = biological target: T3, recombinant human E-cadherin, P12830
[6] = biological target: recombinant human aggrecan (G1-IGD-G2 domains), P16112
[7] = biological target: T4, recombinant human biglycan, P21810
[8] = biological target: T5, recombinant human brevican, Q96GW7
[9] = biological target: T6, recombinant human decorin, P07585
[10] = biological target: recombinant human neurocan, O14594
[11] = biological target: recombinant human versican, P13611
[12] = biological target: β-casein (in 12% β-casein Zymogram Ready Gels, Bio-Rad)

recombinant human aggrecan (G1-IGD-G2 domains), P16112, sequence (P16112 20-675): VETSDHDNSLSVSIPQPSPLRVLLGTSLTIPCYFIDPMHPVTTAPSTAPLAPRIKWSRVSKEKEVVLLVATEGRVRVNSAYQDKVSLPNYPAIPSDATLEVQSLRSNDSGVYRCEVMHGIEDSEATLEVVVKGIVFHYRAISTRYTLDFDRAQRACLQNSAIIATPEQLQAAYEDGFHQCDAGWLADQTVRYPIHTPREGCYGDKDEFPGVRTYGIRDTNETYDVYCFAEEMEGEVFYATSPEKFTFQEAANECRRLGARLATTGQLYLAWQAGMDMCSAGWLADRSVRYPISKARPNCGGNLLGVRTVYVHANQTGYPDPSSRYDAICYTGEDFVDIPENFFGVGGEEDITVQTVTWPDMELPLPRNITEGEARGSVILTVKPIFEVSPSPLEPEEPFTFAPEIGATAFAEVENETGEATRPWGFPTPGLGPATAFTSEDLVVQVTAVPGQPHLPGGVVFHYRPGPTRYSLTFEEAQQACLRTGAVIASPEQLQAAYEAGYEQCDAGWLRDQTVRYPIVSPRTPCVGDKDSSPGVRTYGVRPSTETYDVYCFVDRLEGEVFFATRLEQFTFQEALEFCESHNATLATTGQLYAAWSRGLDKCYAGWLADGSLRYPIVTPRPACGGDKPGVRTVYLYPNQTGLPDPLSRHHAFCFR
recombinant human neurocan, O14594, sequence (O14594 23-1321): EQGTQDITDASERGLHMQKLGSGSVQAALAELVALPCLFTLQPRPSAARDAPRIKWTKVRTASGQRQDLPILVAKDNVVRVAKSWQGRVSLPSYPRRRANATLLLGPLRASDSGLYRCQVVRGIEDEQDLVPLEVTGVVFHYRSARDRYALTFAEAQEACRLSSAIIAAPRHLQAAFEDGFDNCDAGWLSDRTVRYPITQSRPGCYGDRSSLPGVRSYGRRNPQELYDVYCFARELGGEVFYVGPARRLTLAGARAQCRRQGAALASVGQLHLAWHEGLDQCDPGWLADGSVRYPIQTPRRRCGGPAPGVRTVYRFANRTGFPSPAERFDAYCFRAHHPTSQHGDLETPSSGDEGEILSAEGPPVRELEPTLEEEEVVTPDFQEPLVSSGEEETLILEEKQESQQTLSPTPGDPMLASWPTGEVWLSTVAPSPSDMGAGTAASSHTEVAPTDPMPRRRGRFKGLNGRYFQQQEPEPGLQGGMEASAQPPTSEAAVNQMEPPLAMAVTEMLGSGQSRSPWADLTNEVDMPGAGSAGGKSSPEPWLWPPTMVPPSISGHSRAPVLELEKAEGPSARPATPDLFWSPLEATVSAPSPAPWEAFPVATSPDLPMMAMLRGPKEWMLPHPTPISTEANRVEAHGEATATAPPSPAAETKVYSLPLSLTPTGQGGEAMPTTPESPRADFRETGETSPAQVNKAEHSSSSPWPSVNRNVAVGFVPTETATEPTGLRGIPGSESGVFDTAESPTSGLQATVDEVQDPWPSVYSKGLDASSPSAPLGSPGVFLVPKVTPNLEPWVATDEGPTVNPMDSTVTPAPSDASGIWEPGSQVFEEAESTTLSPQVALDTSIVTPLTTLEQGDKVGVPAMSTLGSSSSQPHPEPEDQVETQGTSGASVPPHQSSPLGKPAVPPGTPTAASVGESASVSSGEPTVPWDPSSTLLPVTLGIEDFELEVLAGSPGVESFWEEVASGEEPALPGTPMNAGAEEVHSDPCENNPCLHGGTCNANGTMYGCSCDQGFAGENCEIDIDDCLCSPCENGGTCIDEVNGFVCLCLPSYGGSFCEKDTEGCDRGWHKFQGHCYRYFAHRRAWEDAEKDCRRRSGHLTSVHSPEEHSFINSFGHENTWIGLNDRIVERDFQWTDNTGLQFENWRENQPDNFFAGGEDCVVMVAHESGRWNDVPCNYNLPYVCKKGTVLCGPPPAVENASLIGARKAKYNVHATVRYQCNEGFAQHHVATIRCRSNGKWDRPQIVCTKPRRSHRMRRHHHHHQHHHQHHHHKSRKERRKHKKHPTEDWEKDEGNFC
native human plasma fibronectin, P02751, sequence (P02751 other isoform, or with tags, fused parts or gaps): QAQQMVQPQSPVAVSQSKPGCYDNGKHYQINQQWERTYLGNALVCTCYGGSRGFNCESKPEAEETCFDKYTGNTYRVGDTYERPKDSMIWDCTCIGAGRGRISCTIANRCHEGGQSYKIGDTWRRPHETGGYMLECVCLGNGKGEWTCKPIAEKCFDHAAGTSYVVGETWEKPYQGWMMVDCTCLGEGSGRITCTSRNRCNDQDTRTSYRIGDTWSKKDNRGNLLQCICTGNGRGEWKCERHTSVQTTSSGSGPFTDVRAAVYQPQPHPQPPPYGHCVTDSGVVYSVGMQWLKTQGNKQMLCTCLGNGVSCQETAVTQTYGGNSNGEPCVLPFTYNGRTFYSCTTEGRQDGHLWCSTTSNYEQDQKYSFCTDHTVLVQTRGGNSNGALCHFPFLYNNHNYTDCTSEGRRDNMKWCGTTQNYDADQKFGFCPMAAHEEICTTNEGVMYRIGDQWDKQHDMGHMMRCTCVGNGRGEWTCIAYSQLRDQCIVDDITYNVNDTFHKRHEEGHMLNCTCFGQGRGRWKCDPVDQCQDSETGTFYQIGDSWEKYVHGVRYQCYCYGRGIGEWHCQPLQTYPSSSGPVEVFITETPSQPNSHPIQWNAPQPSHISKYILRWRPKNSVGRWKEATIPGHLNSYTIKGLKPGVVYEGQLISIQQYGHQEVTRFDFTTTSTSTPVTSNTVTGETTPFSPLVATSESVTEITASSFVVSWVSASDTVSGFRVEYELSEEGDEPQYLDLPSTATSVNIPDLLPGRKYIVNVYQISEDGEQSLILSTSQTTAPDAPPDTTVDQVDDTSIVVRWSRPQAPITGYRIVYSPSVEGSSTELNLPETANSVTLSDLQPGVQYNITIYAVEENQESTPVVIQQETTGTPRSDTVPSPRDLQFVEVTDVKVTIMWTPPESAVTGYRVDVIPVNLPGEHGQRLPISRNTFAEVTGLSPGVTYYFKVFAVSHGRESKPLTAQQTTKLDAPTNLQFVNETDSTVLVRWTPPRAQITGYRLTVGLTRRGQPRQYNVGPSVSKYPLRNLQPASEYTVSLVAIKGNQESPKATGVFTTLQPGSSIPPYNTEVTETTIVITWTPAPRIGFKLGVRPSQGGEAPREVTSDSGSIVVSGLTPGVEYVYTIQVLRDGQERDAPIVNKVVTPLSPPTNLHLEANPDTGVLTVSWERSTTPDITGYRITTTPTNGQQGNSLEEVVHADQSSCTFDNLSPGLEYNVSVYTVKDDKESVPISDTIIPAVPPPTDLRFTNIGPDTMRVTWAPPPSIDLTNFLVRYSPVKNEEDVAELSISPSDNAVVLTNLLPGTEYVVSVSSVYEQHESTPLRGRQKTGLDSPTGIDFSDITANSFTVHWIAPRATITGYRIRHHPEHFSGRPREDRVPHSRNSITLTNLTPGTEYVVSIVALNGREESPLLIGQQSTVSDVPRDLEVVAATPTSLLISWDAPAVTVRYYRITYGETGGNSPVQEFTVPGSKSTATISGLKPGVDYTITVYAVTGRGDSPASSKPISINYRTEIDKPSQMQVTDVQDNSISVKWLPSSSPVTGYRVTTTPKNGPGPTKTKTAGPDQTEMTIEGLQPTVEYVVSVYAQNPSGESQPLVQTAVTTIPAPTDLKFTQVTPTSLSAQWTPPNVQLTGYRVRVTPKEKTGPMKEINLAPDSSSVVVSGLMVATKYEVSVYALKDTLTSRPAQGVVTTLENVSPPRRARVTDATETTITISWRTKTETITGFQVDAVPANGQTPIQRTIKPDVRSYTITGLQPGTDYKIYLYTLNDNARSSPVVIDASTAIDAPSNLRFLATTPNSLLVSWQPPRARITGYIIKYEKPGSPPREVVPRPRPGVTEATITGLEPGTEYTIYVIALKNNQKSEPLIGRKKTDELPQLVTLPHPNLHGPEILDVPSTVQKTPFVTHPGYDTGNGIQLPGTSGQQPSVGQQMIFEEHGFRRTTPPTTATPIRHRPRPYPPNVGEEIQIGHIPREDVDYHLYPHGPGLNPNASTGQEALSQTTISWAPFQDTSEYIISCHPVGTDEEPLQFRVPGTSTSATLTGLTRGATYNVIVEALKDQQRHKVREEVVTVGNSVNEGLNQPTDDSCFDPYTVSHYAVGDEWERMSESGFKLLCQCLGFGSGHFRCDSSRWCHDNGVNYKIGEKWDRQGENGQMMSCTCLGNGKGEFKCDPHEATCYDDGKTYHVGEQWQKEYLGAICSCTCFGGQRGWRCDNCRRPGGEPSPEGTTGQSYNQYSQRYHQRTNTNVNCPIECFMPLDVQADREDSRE

Row | Protein | Proteolytic activity [1] | Proteolytic activity [2] | Proteolytic activity (native bovine casein) | Proteolytic activity [3] | Proteolytic activity [4] | Proteolytic activity [5] | Proteolytic activity [6] | Proteolytic activity [7] | Proteolytic activity [8] | Proteolytic activity [9] | Proteolytic activity [10] | Proteolytic activity [11] | β-casein zymography [12] | proteolytic fragments on silver-stained SDS-PAGE [6]
1 | B1 | + | + | + | + | + | + | + | + | + | + | + | + | Recombinant BbHtrA was proteolytically active against β-casein as evidenced by clearing around the protein band | –
2 | B2 | – | – | – | – | – | – | – | – | – | – | – | – | – | incubation of recombinant aggrecan (FIG. 4A, lane 1) alone or with the inactive mutant (FIG. 4A, lane 6) failed to generate these fragments
